Tests used:
Dll4 [1] = experiment: flow cytometry: recombinant NOTCH1-Fc + PE anti-IgG Fc on DLL4-expressing HEK293T cells pre-treated with control IgG; gate PE+
Dll4 [2] = experiment: flow cytometry: recombinant NOTCH1-Fc + PE anti-IgG Fc on DLL4-expressing Cf2Th cells pre-treated with control IgG; gate PE+
Dll4 [3] = experiment: flow cytometry: recombinant NOTCH1-Fc + PE anti-IgG Fc on DLL4-expressing Cf2Th cells pre-treated with control IgG
human DLL4 [4] = molecular target: T1, human DLL4 (human, UniProt Q9NR61 27-529, limits assumed); experiment: SPR Biacore 3000, antibody captured on anti-rat Fc (90 RU), full kinetics, analyte 0-25 nM
T1 construct: also called Hu.DLL4; HuDLL4
Protocol: (§1) Binding experiments were performed on Biacore 3000 at 25° C. Flow cell 2, 3 and 4 of the CM5 chip were coated with the goat anti-rat Fc Capture Ab using EDC/NHS the amine coupling method as per GE manufacturer's instruction. The unoccupied sites were blocked with 1M ethanolamine. Three test antibodies were captured at an RU as indicated on flow cell 2, 3 and 4. Ag was flowed over the chip. Binding of antigen to the antibodies was monitored in real time. From the observed kₒₙ and koff, KD was determined. For the interactions with fast off rate, steady state kinetics was used to determine KD.

human DLL4 [5] = molecular target: T1, human DLL4; experiment: SPR Biacore 3000, antibody captured on anti-rat Fc (170 RU), scouting at 100 nM analyte
Protocol: as §1
(§2) Scouting analysis was performed using a single analyte concentration of 100 nM. At this concentration, binding should be observed even if the ligand binding affinity is weak. Flow cell 1 response was used for reference subtraction.

human DLL1 [6] = molecular target: T2, human DLL1 (human, UniProt O00548 18-545, limits assumed); experiment: head of the antibody's table; assay not named
T2 construct: Construct not described; also called Hu.DLL1
T2 sequence (looked up): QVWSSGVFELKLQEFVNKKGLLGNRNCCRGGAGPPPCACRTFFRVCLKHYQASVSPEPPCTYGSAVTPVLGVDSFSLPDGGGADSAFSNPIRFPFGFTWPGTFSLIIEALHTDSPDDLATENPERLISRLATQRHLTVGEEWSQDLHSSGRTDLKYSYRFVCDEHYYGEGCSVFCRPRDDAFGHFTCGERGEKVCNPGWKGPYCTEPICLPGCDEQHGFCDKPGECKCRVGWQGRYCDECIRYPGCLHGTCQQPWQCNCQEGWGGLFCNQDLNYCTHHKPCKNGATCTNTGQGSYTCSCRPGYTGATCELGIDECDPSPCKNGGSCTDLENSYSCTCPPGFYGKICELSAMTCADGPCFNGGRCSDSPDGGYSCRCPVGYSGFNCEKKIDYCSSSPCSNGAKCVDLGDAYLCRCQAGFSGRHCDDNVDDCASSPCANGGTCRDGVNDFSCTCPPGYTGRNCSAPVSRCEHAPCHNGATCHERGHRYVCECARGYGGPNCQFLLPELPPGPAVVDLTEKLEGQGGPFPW

human DLL4 [7] = molecular target: T1, human DLL4; experiment: head of the antibody's table; summary bound, assay and unit not named there
porcine DLL4 [8] = molecular target: T3, porcine DLL4 (porcine, UniProt A0A4X1URL1 27-529); experiment: SPR Biacore 3000, antibody captured on anti-rat Fc (80 RU), full kinetics, analyte 0-50 nM
T3 construct: Construct not described (pig DLL4 ECD is named only for hybridoma screening); also called pig DLL4; porcine DDL4
Protocol: as §1

porcine DLL4 [9] = molecular target: T3, porcine DLL4; experiment: SPR Biacore 3000, antibody captured on anti-rat Fc (80 RU), scouting at 20 nM and 100 nM analyte
Protocol: as §1

human DLL4 [10] = molecular target: T1, human DLL4; experiment: SPR Biacore 3000, full kinetics, against 8D2 as reference
Protocol: as §1

human DLL4 [11] = molecular target: T1, human DLL4; experiment: SPR Biacore 3000, antibody captured on anti-rat Fc (220 RU), scouting at 100 nM analyte
Protocol: as §1, §2

porcine DLL4 [12] = molecular target: T3, porcine DLL4; experiment: SPR Biacore 3000, antibody captured on anti-rat Fc (110 RU), full kinetics, analyte 0-50 nM
Protocol: as §1

human DLL4 [13] = molecular target: T1, human DLL4; experiment: SPR Biacore 3000, antibody captured on anti-rat Fc (140 RU), full kinetics, analyte 0-12.5 nM
Protocol: as §1

human DLL1 [14] = molecular target: T2, human DLL1; experiment: SPR Biacore 3000, antibody captured on anti-rat Fc (220 RU), scouting
Protocol: as §1, §2

human DLL1 [15] = molecular target: T2, human DLL1; experiment: SPR Biacore 3000, antibody captured on anti-rat Fc (161 RU), scouting
Protocol: as §1, §2

human DLL4 [16] = molecular target: T1, human DLL4; experiment: SPR Biacore 3000, antibody captured on anti-rat Fc (161 RU), scouting at 100 nM analyte
Protocol: as §1, §2

porcine DLL4 [17] = molecular target: T3, porcine DLL4; experiment: SPR Biacore 3000, antibody captured on anti-rat Fc (75 RU), scouting at 20 nM and 100 nM analyte
porcine DLL4 [18] = molecular target: T3, porcine DLL4; experiment: SPR Biacore 3000, antibody captured on anti-rat Fc (130 RU), full kinetics, analyte 0-200 nM
Protocol: as §1

T1 sequence (Q9NR61 27-529 limits assumed): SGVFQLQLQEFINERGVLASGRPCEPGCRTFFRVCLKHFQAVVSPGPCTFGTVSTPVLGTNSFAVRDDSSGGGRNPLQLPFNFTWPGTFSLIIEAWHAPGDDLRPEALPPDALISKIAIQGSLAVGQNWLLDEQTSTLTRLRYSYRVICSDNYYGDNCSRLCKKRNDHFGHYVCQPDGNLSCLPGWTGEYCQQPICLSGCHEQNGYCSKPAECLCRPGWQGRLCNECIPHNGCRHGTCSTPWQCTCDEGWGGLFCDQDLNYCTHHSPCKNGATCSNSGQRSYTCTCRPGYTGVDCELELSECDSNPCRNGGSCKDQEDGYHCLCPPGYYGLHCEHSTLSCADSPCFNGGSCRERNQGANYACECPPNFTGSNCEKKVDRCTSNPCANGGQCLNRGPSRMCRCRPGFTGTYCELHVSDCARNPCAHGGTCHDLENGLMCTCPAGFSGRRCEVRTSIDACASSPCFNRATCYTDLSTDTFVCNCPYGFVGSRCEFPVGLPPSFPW
T3 sequence (A0A4X1URL1 entry or part of it): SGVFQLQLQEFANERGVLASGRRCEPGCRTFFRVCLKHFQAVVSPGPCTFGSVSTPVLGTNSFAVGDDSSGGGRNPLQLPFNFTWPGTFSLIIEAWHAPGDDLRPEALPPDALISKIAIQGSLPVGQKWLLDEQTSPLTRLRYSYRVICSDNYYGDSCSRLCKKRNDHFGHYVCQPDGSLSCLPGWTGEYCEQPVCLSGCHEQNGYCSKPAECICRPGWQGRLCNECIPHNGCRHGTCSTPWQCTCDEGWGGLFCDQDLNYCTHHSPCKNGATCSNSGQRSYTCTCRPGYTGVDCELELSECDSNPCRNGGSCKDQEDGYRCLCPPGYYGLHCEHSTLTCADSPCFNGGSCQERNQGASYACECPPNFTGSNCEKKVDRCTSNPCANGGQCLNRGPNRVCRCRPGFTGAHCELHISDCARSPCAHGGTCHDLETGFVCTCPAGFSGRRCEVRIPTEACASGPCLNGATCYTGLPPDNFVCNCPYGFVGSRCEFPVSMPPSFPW
Sequence of Dll4 (chain, as listed by the source limits assumed): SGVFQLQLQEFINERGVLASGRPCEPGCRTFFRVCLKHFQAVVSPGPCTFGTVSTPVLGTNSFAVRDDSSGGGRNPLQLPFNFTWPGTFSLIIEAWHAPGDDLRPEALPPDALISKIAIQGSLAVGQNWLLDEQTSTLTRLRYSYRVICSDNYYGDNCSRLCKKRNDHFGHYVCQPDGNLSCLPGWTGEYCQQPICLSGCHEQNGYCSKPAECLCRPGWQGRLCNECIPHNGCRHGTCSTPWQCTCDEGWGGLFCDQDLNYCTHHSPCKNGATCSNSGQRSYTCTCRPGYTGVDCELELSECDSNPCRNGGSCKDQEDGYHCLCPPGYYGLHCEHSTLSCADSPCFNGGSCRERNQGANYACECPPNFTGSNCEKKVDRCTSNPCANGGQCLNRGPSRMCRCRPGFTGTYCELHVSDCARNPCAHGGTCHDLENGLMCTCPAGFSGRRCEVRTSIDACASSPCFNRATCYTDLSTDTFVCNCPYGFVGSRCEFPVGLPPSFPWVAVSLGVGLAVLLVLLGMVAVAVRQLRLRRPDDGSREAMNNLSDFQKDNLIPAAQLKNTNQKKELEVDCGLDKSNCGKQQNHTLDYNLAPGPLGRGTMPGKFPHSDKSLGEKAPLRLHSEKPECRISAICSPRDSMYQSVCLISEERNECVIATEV

NOTCH1-Fc (Fc fusion)
PE positive cells (%) (Dll4 [1]): 9.6%
PE positive cells (%) (Dll4 [2]): 11%
PE positive cells (%) (Dll4 [3]): 16.8%

B1: Monoclonal Antibody 8C2 (antibody, V domains shown)
VH: QVQLKESGPGLVQPSQTLSLTCTVSGISISIYGVSWVRQPPGKGLEWMGGIWGDGSTDYNSALKSRLSLSRDTSKSQVFLKMNSLQTEDTAIYFCTLSGDFDYWGHGVLVTVSS
VL: DIQLTQSPASLSASLDEIVTITCQASLDIGNWLAWYQQKTGKSPQLLIYGATSLAGGVPSRFSGSRSGTQYSLKISKLQVEDTGIYYCLQHYRAPFTFGSGTKLEI
notes: Rat hybridoma monoclonal antibody, IgG type (captured by goat anti-rat Fc); also called BMH-8C2-D10; BMH-8C2-D4
Kd (human DLL4 [4]): 0.343 nM
koff (human DLL4 [4]): 0.000439 s⁻¹
kon (human DLL4 [4]): 1.28e+06 M⁻¹ s⁻¹
Kd (human DLL4 [5]): 3.68 nM
koff (human DLL4 [5]): 0.000505 s⁻¹
kon (human DLL4 [5]): 137000 M⁻¹ s⁻¹
binding result (human DLL1 [6]): no binding
kon (human DLL4 [7]): > 500000 M⁻¹ s⁻¹
Kd (porcine DLL4 [8]): 7.07 nM
koff (porcine DLL4 [8]): 0.00198 s⁻¹
kon (porcine DLL4 [8]): 281000 M⁻¹ s⁻¹
Kd (porcine DLL4 [9]): 15.4 nM
koff (porcine DLL4 [9]): 0.00162 s⁻¹
kon (porcine DLL4 [9]): 106000 M⁻¹ s⁻¹
fold higher affinity than 8D2 (human DLL4 [10]): ~10 fold
fold lower off rate than 8D2 (human DLL4 [10]): 4 fold

B2: Monoclonal Antibody 8D2 (antibody, V domains shown)
VH: SGGGLVQPGRSMKLSCAASGFTFSNYDMAWVRQDPKKGLEWVATISYDGRSTYYRDSVKGRFTISRDNAKSTLYLQMDSLRSEDTATYYCKDYDGHYHPYGMEAWGQGISVTVSS
VL: DIVLTQSPALAVTLGQRATISCRASQSVTISNYNLMQWYQQRPGRQPKLLIYDASNLASGIPARFSGSGSGTDFTLTIDPVQADDIATYYCQQSRDDPRTFGGGTKLELR
notes: Rat hybridoma monoclonal antibody, IgG type (captured by goat anti-rat Fc); also called BMH-8D2-D10; rat 8D2
Kd (human DLL4 [11]): 2.27 nM
koff (human DLL4 [11]): 0.00108 s⁻¹
kon (human DLL4 [11]): 474000 M⁻¹ s⁻¹
Kd (porcine DLL4 [12]): 7.21 nM
koff (porcine DLL4 [12]): 0.00182 s⁻¹
kon (porcine DLL4 [12]): 253000 M⁻¹ s⁻¹
Kd (human DLL4 [13]): 2.12 nM
koff (human DLL4 [13]): 0.00161 s⁻¹
kon (human DLL4 [13]): 759000 M⁻¹ s⁻¹
Kd (porcine DLL4 [9]): 9.95 nM
koff (porcine DLL4 [9]): 0.00171 s⁻¹
kon (porcine DLL4 [9]): 172000 M⁻¹ s⁻¹
binding result (human DLL1 [14]): no binding (tested: 100 nM)

B3: Monoclonal Antibody 2H10 (antibody, V domains shown)
VH: QVQVKESGPGLVQPSQTLSLTCIVSGFSLSSYHVSWVRQPPGKSLVWMGTIWAGGGTNYNSAVQSRLSISRDTSKSQVFLKVNSLQPEDTGTYYCARHYYDGYYHGPYFDYWGQGVMVTV
VL: SPASLSASLGETVTFECRASEDIYTNLAWYQQKPGNSPQLLIYDANTLADGVPSRFSGSGSGTQFSLKINSLQSEDVASYFCQQYDSYPWTFGGGTKLELRR
notes: Rat hybridoma monoclonal antibody, IgG type (captured by goat anti-rat Fc); also called BMH-2H10-A7
binding result (human DLL1 [15]): no binding (tested: 100 nM)
Kd (human DLL4 [16]): 88.6 nM
koff (human DLL4 [16]): 0.00109 s⁻¹
kon (human DLL4 [16]): 12400 M⁻¹ s⁻¹
Kd (porcine DLL4 [17]): 1240 nM
koff (porcine DLL4 [17]): 0.00345 s⁻¹
kon (porcine DLL4 [17]): 2790 M⁻¹ s⁻¹
Kd (porcine DLL4 [18]): 9.37 µM
koff (porcine DLL4 [18]): 0.00276 s⁻¹
kon (porcine DLL4 [18]): 295 M⁻¹ s⁻¹

Reference: patent US20260008839A1 (BRIGHAM AND WOMEN S HOSPITAL, published 2026)
